Earlier results on 1 substance are cited in paper PMC6824834.

For this series, the target named is Glu165 (UniProt position 165, VVVAYEPVWAI). As to conditions: substrate-bound, closed (desolvated) active site.

For “Triosephosphate isomerase (TIM) (Not stated for the quoted values; residue numbering is that of Saccharomyces cerevisiae TIM (yTIM))”, the pKa is listed as over 6.
